Assay results published in US20150368333A1 (GlaxoSmithKline, published 2015).
Blank lines part the entries; values can stand above or below the binder they belong to.

Legend:
recombinant human TNFα [1] = target: T1, recombinant human TNFα (human, UniProt P01375 77-233); assay: Biacore T100 SPR, antibody captured on Protein A, TNF alpha as analyte, 37 C
T1 construct: also called human TNF alpha; tumour necrosis factor alpha

[2] = target: T2, recombinant cynomolgus TNF alpha (cynomolgus, UniProt P79337 77-233); assay: as above
T2 construct: also called Cyno TNFα
T2 sequence (P79337 77-233 limits assumed): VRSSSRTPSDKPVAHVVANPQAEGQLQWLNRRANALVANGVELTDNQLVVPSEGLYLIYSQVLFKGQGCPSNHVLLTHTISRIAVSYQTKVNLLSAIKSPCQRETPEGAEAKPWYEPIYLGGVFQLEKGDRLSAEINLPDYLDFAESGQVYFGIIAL

recombinant human TNFα [3] = target: T1, recombinant human TNFα; assay: Biacore T100 SPR, antibody captured on anti-human IgG, TNF alpha as analyte, 37 C
[4] = target: T2, recombinant cynomolgus TNF alpha; assay: as above
[5] = target: T3, TNF alpha (species not given) (UniProt P01375 77-233, limits assumed); assay: cell-based or functional assay
T3 sequence (P01375 77-233 limits assumed): as the sequence (P79337 77-233 limits assumed) above, with V37L, T44R, N72T, L138R counted along it

[6] = target: T3, TNF alpha (species not stated in the …); assay: ProteOn SPR reverse format, biotinylated TNF alpha captured on neutravidin (NLC) chip, antibody as analyte, 1:1 model, apparent kinetics
[7] = target: T3, TNF alpha (species not stated in the …); assay: cell-based or functional assay; remark: listed apart in the source
[8] = target: T4, recombinant cynomolgus FcRn (cynomolgus, UniProt Q8SPV9 24-297; Q8SPW0 21-119, limits assumed); assay: SPR, antibody amine-coupled on GLM chip, FcRn as analyte, equilibrium model, pH 7.4
T4 construct: Construct not described; beta-2-microglobulin not mentioned; also called cyno FcRn

rat FcRn [9] = target: T5, rat FcRn (rat, UniProt P13599 23-298; P07151 21-119, limits assumed); assay: as above
T5 construct: Construct not described; also called Rat FcRn receptor
T5 sequence (looked up) 1: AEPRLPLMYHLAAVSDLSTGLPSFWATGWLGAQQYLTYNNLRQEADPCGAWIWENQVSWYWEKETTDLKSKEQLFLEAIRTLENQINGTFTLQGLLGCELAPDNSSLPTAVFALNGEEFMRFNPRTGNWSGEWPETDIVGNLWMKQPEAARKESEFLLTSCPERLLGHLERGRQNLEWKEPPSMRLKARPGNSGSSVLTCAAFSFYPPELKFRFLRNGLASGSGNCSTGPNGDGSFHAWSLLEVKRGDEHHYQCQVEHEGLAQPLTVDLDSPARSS
T5 sequence (looked up) 2: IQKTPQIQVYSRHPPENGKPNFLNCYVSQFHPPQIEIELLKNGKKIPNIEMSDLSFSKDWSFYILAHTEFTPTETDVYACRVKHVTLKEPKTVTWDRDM

recombinant human FcRn [10] = target: T6, recombinant human FcRn (human, UniProt P55899 24-297; P61769 21-119, limits assumed); assay: as above
T6 construct: also called Human FcRn receptor

mouse FcRn [11] = target: T7, mouse FcRn (mouse, UniProt Q61559 22-297; P01887 21-119, limits assumed); assay: as above
T7 construct: Construct not described; also called Mouse FcRn receptor
T7 sequence (looked up) 1: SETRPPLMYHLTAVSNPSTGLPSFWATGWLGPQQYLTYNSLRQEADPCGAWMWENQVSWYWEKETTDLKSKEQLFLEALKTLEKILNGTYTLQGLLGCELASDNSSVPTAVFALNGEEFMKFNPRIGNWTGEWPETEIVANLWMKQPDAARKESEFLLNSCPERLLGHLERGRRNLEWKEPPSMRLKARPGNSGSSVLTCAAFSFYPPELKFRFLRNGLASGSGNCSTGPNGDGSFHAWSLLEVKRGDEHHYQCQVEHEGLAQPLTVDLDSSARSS
T7 sequence (looked up) 2: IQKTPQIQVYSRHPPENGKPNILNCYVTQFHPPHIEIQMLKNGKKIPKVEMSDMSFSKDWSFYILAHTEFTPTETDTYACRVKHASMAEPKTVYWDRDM

[12] = target: T4, recombinant cynomolgus FcRn; assay: SPR, antibody amine-coupled on GLM chip, FcRn as analyte, equilibrium model, pH 6.0
rat FcRn [13] = target: T5, rat FcRn; assay: as above
recombinant human FcRn [14] = target: T6, recombinant human FcRn; assay: as above
mouse FcRn [15] = target: T7, mouse FcRn; assay: as above
[16] = target: T4, recombinant cynomolgus FcRn; assay: SPR, antibody amine-coupled on GLM chip, FcRn as analyte, equilibrium model, pH 6.0; pH 6.0
rat FcRn [17] = target: T5, rat FcRn; assay: as above
recombinant human FcRn [18] = target: T6, recombinant human FcRn; assay: as above
mouse FcRn [19] = target: T7, mouse FcRn; assay: as above

T1 sequence (P01375 77-233 limits assumed): as the sequence (P79337 77-233 limits assumed) above, with V37L, T44R, N72T, L138R counted along it

- Kd (recombinant human TNFα [1]): 0.0156 nM
- koff (recombinant human TNFα [1]): 4.19e-05 s⁻¹
- kon (recombinant human TNFα [1]): 2.68e+06 M⁻¹ s⁻¹
- Kd [2]: 0.015 nM
- koff [2]: 3.51e-05 s⁻¹
- kon [2]: 2.34e+06 M⁻¹ s⁻¹
- Kd (recombinant human TNFα [3]): 0.0157 nM
- koff (recombinant human TNFα [3]): 7.07e-05 s⁻¹
- kon (recombinant human TNFα [3]): 4.51e+06 M⁻¹ s⁻¹
- Kd [4]: 0.0467 nM
- koff [4]: 0.000209 s⁻¹
- kon [4]: 4.48e+06 M⁻¹ s⁻¹
- Kd [6]: 0.015 nM
- koff [6]: 3e-05 s⁻¹
- kon [6]: 2.06e+06 M⁻¹ s⁻¹
- IC50, TNFα-induced IL-6 release assay (whole blood) [7]: 0.11 nM
B1: BPC1500 (antibody, V domains shown)
VH: EVQLVESGGGLVQPGRSLRLSCAASGFTFDDHALHWVRQAPGKGLEWVSAITWNSGHIDYADSVEGRFTISRDNAKNSLYLQMNSLRAEDTAVYYCAKVRYLSTASSLDYWGQGTLVTVSS
VL: not shown
notes: also called CDR variant cb2-44, wild-type Fc; improved anti-TNFα antibody
- IC50, L929 neutralisation assay (cell viability) [5]: 0.13 µg/mL

- Kd [8]: 11100 nM
- Kd (rat FcRn [9]): 4330 nM
- Kd (recombinant human FcRn [10]): 11600 nM
- Kd (mouse FcRn [11]): 2160 nM
- Kd [12]: 92.1 nM
- Kd (rat FcRn [13]): 66 nM
- Kd (recombinant human FcRn [14]): 98 nM
- Kd (mouse FcRn [15]): 53.4 nM
B2: BPC2604 (antibody, human IgG1, kappa)
heavy: QVTLRESGPALVKPTQTLTLTCTFSGFSLSTSGMGVSWIRQPPGKGLEWLAHIYWDDDKRYNPSLKSRLTISKDTSRNQVVLTMTNMDPVDTATYYCARRETVFYWYFDVWGRGTLVTVSSASTKGPSVFPLAPSSKSTSGGTAALGCLVKDYFPEPVTVSWNSGALTSGVHTFPAVLQSSGLYSLSSVVTVPSSSLGTQTYICNVNHKPSNTKVDKKVEPKSCDKTHTCPPCPAPELLGGPSVFLFPPKPKDTLYITREPEVTCVVVDVSHEDPEVKFNWYVDGVEVHNAKTKPREEQYNSTYRVVSVLTVLHQDWLNGKEYKCKVSNKALPAPIEKTISKAKGQPREPQVYTLPPSRDELTKNQVSLTCLVKGFYPSDIAVEWESNGQPENNYKTTPPVLDSDGSFFLYSKLTVDKSRWQQGNVFSCSVMHEALHNHYTQKSLSLSPGK
light: DIVLTQSPSSLSASVGDRVTITCKASQSVDYDGDSYMNWYQQKPGKAPKLLIYAASNLESGIPSRFSGSGSGTDFTFTISSLQPEDIATYYCQQSNEDPPTFGQGTKVEIKRTVAAPSVFIFPPSDEQLKSGTASVVCLLNNFYPREAKVQWKVDNALQSGNSQESVTEQDSKDSTYSLSSTLTLSKADYEKHKVYACEVTHQGLSSPVTKSFNRGEC
notes: also called pascolizumab-YTE; Pasco-YTE

- Kd [16]: 505 nM
- Kd (rat FcRn [17]): 228 nM
- Kd (recombinant human FcRn [18]): 541 nM
- Kd (mouse FcRn [19]): 205 nM
B3: Pascolizumab (antibody, human IgG1, kappa)
heavy: not shown
light: B2 light
notes: IgG1, unmodified Fc; also called anti-IL-4 antibody
